For this test, the target named is T1, 增强绿色荧光蛋白 (enhanced green fluorescent protein, EGFP) (Aequorea victoria (engineered mutant), UniProt P42212 1-238 = GFP, limits assumed).
T1 construct: also called EGFP蛋白
In words: biolayer interferometry: nanobody coupled by EDC/s-NHS to AR2G probe, association 300 s, dissociation 120 s in PBS. (Biolayer interferometry detects binding as a change in optical thickness at a sensor tip.)

B1: 高亲和力增强绿色荧光蛋白纳米抗体 (anti-EGFP nanobody), clone 4-28 (VHH)
VHH: QVQLVESGGGLVQPGGSLRLSCAASGSRFSIHTMGWYRQAPGKQRELVATITWGGRQNYADSVKGRFTINRDNDKNTVDLQMDSLKPEDTAVYYCNVRPISNGPDYWGQGTQVTVSS
notes: Alpaca VHH selected by phage display; The purified protein was about 20 kD by SDS-PAGE; also called 抗EGFP纳米抗体; 编号4-28; not shown: Expressed from PET25b in E. coli Rosetta and purified on a nickel column
As to B1, the dissociation constant (Kd) stood at 0.0967 nM.

The Kd is a measure of binding affinity in units of concentration.

Source of the values: CN112010969A (UNIV NANCHANG, dated 2020).
